# Where no end group is shown, it is not given here. [ ]: non-standard residue; d: D form. Arg(Me2a) = CN(C)C(=N)NCCC[C@H](N)C(=O)O; Arg(Me) = CNC(=N)NCCC[C@H](N)C(=O)O
# T1: TRIM66-WT965-1160 (Homo sapiens, UniProt O15016)
# T1 construct: ITC titration: titrating TRIM66-WT965-1160 with various histone H3 peptides; GST (N, cleaved yes); made in house; host or cells: Escherichia coli BL21 (DE3)
# T1 sequence (O15016 1100-1295): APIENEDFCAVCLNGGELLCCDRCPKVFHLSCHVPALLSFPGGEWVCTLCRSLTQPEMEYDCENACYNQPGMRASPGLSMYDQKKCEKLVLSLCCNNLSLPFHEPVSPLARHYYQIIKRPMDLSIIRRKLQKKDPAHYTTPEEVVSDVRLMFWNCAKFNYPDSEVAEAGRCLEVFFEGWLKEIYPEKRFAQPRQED
# T2: TRIM33_(882-1087) (PHD-Bromodomain) (human, UniProt Q9UPN9 882-1087)
# T2 construct: also called TRIM33 PHD-Bromo; source: E. coli BL21 (DE3), purified (Ni column, SUMO protease, second Ni column, Superdex 75)
# T2 sequence (looked up): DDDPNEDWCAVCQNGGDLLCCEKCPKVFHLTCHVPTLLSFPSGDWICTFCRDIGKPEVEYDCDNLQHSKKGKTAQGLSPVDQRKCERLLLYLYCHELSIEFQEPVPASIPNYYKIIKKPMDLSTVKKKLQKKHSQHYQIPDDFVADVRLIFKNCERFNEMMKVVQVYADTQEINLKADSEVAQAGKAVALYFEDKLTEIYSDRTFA
# T3: TRIM24_(824-1006) (PHD-Bromodomain) (human, UniProt O15164 824-1006)
# T3 construct: TRIM24 PHD-Bromodomain, Homo sapiens, residues 824-1006 of UniProt O15164 (Isoform long); also called TRIM24-PHD-Bromo; source: E. coli BL21 (DE3), purified (Ni column, SUMO protease, second Ni column, Superdex 75)
# T3 sequence (looked up): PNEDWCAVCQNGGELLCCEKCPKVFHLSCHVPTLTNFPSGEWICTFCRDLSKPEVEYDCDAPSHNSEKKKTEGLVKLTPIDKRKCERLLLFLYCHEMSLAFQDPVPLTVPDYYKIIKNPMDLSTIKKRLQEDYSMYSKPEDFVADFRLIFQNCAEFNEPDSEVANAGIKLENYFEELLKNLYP
# T4: TRIM33_(882-1087) (human, UniProt Q9UPN9 882-1087)
# T4 construct: also called TRIM33 PHD-Bromo; TRIM33 PHD-Bromodomain; source: E. coli BL21 (DE3), purified (Ni-chelating column, SUMO protease, second nickel column, Superdex 75)
# T4 sequence (looked up): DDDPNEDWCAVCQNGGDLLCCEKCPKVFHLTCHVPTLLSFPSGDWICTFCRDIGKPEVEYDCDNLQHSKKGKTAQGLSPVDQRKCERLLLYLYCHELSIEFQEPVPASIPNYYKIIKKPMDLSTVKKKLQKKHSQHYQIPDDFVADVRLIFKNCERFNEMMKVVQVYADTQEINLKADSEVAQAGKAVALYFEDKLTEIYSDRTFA
# T5: TRIM24_(824-1006) (human, UniProt O15164 824-1006)
# T5 construct: TRIM24, human, PHD-Bromodomain, residues 824-1006, amplified from a human bone marrow cDNA library, in pET-SUMO-28a (+); also called TRIM24-PHD-Bromo; TRIM24 PHD-Bromodomain; source: E. coli BL21 (DE3), purified (Ni-chelating column, SUMO protease, second nickel column, Superdex 75)
# T5 sequence (looked up): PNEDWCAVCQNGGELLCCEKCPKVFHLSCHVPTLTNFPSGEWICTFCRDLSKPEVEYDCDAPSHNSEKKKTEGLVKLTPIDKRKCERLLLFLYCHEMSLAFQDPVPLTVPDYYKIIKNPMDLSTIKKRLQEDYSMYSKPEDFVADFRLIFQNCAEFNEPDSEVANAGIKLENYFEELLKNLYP
# How the values were obtained:
# [1] = biological target: T1, TRIM66-WT965-1160; assay: ITC, PHD-Bromodomain wild type; format: binding; settings: for Kd / KD: MicroCal PEAQ-ITC, 20 mM Tris, 100 mM NaCl, error from curve fit, Weak binding = ITC curves cannot be fitted reliably, N.D. = no detectable binding
# Text: We next performed the glutathione S-transferase (GST) pulldown assays of the TRIM66-WT965-1160 against the calf thymus histones to verify the histone-binding ability of TRIM66 PHD-Bromodomain. […] The PHD of TRIM66 shared a low conservation with those of ING4, PHF2, and BPTF, and lacked the conserved aromatic residues, which were necessary for binding H3K4me2/3[40]–[42] (Supplementary Fig. 2b). Nevertheless, TRIM66 was highly conserved in sequence and structure with the PHDs of TRIM24 and TRIM33 (Fig. 1c and Supplementary Fig. 2b), which were reported to bind H3K4me0[5],[6]; thus, we speculated that the PHD of TRIM66 could bind H3K4me0. To verify this hypothesis, we performed isothermal titration calorimetry (ITC)-based binding assays. […] Based on previous researches reporting the acetyl-lysine binding partners of Bromodomain[3]–[12], we chose a series of related peptides derived from H3 and H4, to test their interactions with TRIM66-WT965-1160 by ITC experiments. […] We further found the acetylated state of K56 was necessary for this binding (Supplementary Fig. 3b).
# We next titrated the TRIM66-WT965-1160 with a series of R2-methylated H3 peptides through ITC assays. […] This finding was consistent with the structural observation that each NηH atom of the R2 formed a hydrogen bond with residues in protein (Fig. 2d).
# The DNA fragments of human TRIM66_968-1160, TRIM24_824-1006, and TRIM33_882-1087 were amplified from a human bone marrow cDNA library using a PCR-based cloning strategy. The fragments of TRIM66-WT968-1160 were inserted into a pGEX-4T-1 plasmid (GE Healthcare). The fragments of TRIM24_824-1006 and TRIM33_882-1087 were ligated into a pET-SUMO-28a (+) plasmid (Novagen). The DNA fragments of TRIM66-MUT968-1160 and TRIM66-WT965-1160 with codon optimization were synthesized by General Biosystems (sequence was shown in Supplementary Methods) and inserted into a pGEXT-4T-1 plasmid (GE Healthcare). Mutants of TRIM66 PHD-Bromo were generated through PCR using the Mutant Best kit (Takara). The mutation of point mutant based on the codon-optimized DNA sequence of TRIM66-WT965-1160. All constructs were expressed in Escherichia coli BL21 (DE3). The construct of ASF1a1-156 inserted into a pRSFDuet plasmid (courtesy of Ruiming Xu Lab, Institute of Biophysics, Chinese Academy of Sciences) was expressed in E. coli BL21 (DE3) RIL. The construct of full-length H4 inserted into a pET3a plasmid was expressed in E. coli BL21 (DE3). The expression of full-length histone H3K56ac was performed in BL21 (DE3) cells transformed with pBK-AxcKRS3 and pET22b encoding H3 with amber codons at the K56 site[12]. The DNA fragment of full-length TRIM66 was synthesized by General Biosystems and ligated into fugw vector (Addgene). See the information of protein sequence in Supplementary Table 1.
# The calorimetric experiments were performed at 25 °C using a MicroCal PEAQ-ITC. The proteins were dialyzed using a buffer containing 20 mM Tris and 100 mM NaCl at pH 7.5. Lyophilized peptides were dissolved in the same buffer and adjusted to pH 7.5 prior to use. Peptide concentrations were estimated from the quantitative NMR experiments[73],[74]. ITC measurements were performed via injection of 0.7–4 mM peptide into a cell containing 0.12 mM TRIM24-PHD-Bromo, 0.05 mM TRIM33 PHD-Bromo, and 0.05 or 0.11–0.15 mM TRIM66-PHD-Bromo (or its mutants). The ITC data were subsequently analyzed using the MicroCal PEAQ-ITC analysis software.
# [2] = biological target: TRIM66-WT_(965-1160) (PHD-Bromodomain) (human) (UniProt O15016); assay: ITC; MicroCal PEAQ-ITC, 25 °C, 20 mM Tris, 100 mM NaCl, pH 7.5; 0.7-4 mM peptide injected into the cell with 0.12 mM TRIM24-PHD-Bromo, 0.05 mM TRIM33 PHD-Bromo, or 0.05 or 0.11-[…] TRIM66-PHD-Bromo (or its mutants); single measurement, errors from the fitting curve
# [3] = biological target: TRIM66-WT_(965-1160) (human) (UniProt O15016); assay: ITC; 0.7–4 mM peptide injected into a cell with 0.05 or 0.11–[…] TRIM66-PHD-Bromo (or its mutants), 0.12 mM TRIM24-PHD-Bromo or 0.05 mM TRIM33 PHD-Bromo; 25 °C; 20 mM Tris, 100 mM NaCl, pH 7.5; MicroCal PEAQ-ITC; single measurement
# [4] = biological target: T2, TRIM33_(882-1087) (PHD-Bromodomain); assay: ITC; MicroCal PEAQ-ITC, 25 °C, 20 mM Tris, 100 mM NaCl, pH 7.5; 0.7-4 mM peptide injected into the cell with 0.12 mM TRIM24-PHD-Bromo, 0.05 mM TRIM33 PHD-Bromo, or 0.05 or 0.11-0.15 mM TRIM66-PHD-Bromo (or its mutants); single measurement, errors from the fitting curve; settings: both partners purified
# [5] = biological target: T3, TRIM24_(824-1006) (PHD-Bromodomain); assay: as above; settings: both partners purified
# [6] = biological target: T4, TRIM33_(882-1087); assay: ITC; 0.7–4 mM peptide injected into a cell with 0.05 or 0.11–0.15 mM TRIM66-PHD-Bromo (or its mutants), 0.12 mM TRIM24-PHD-Bromo or 0.05 mM TRIM33 PHD-Bromo; 25 °C; 20 mM Tris, 100 mM NaCl, pH 7.5; MicroCal PEAQ-ITC; single measurement; settings: both partners purified
# [7] = biological target: T5, TRIM24_(824-1006); assay: as above; settings: both partners purified
# [8] = ITC, 25 °C, pH 7.5, single measurement
molecule,measurement,setting,value
CNCCCC[C@H](NC(=O)[C@@H](NC(=O)[C@H](CCCNC(=N)N)NC(=O)[C@H](C)N)[C@@H](C)O)C(=O)N[C@@H](CCC(N)=O)C(=O)N[C@H](C(=O)N[C@@H](C)C(=O)N[C@@H](CCCNC(=N)N)C(=O)N[C@@H](CCCCN)C(=O)N[C@@H](CO)C(=O)N[C@H](C(=O)NCC(=O)O)[C@@H](C)O)[C@@H](C)O [H3K4me1],Kd,[1]; [8],42.8 ± 2.45 µM
CNC(=N)NCCC[C@H](NC(=O)[C@H](C)N)C(=O)N[C@H](C(=O)N[C@@H](CCCCN)C(=O)N[C@@H](CCC(N)=O)C(=O)N[C@H](C(=O)N[C@@H](C)C(=O)N[C@@H](CCCNC(=N)N)C(=O)N[C@@H](CCCCN)C(=O)N[C@@H](CO)C(=O)N[C@H](C(=O)NCC(=O)O)[C@@H](C)O)[C@@H](C)O)[C@@H](C)O [H3R2me1],Kd,[1]; [8],72.4 ± 3.27 µM
C[C@H](N)C(=O)N[C@@H](CCCNC(=N)N(C)C)C(=O)N[C@H](C(=O)N[C@@H](CCCCN)C(=O)N[C@@H](CCC(N)=O)C(=O)N[C@H](C(=O)N[C@@H](C)C(=O)N[C@@H](CCCNC(=N)N)C(=O)N[C@@H](CCCCN)C(=O)N[C@@H](CO)C(=O)N[C@H](C(=O)NCC(=O)O)[C@@H](C)O)[C@@H](C)O)[C@@H](C)O [H3R2me2a],Kd,[1]; [8],110 ± 11.9 µM
ARTKQTARKSTGGKALREIRRYQK(Ac)S [H3(1-15)-(48-57)K56ac],binding (in words),"[1]; ITC, 25 °C, pH 7.5",higher affinity than that for the individual peptides
same,-T△S,[1]; [8],6.91 kcal per mol
same,N (stoichiometry),[1]; [8],1.17±0.01
same,△H,[1]; [8],-15.5±0.15 kcal per mol
same,fold higher affinity than for the H3_1-12 peptide,[1]; ratio of KD,30 fold
same,fold higher affinity than for the H3_48-57K56ac peptide,[1]; ratio of KD,210 fold
H3K4me2: dimethylated H3K4 peptide,KD,[1]; [8],Weak binding
H3K4me3: trimethylated H3K4 peptide,KD,[1]; [8],Weak binding
H3_(1-12)K4me1 peptide (from UniProt P68431 2-13),stoichiometry N,[2],1.1
same,Kd,[3],42.8 µM
H3_(1-12)R2me1 peptide (from UniProt P68431 2-13),stoichiometry N,[2],0.91
same,Kd,[3],72.4 µM
H3_(1-12)R2me2a peptide (from UniProt P68431 2-13),stoichiometry N,[2],0.98
same,Kd,[3],110 µM
H3_((1-15)-(48-57))K56ac peptide (from UniProt P68431 2-16; P68431 49-58),stoichiometry N,[2],1.17
same,Kd,[3],0.52 µM
"A[Arg(Me)]TKQTARKSTG (peptide, UniProt P68431 2-13, looked up, histone H3.1, Homo sapiens, residues 1-12; also called H3R2me1; source: synthetic peptide (GL Biochem))",stoichiometry N,[4],0.8
same,stoichiometry N,[5],0.93
"A[Arg(Me2a)]TKQTARKSTG (peptide, UniProt P68431 2-13, looked up, histone H3.1, Homo sapiens, residues 1-12; also called H3R2me2a; source: synthetic peptide (GL Biochem))",stoichiometry N,[4],1.06
same,stoichiometry N,[5],0.86
"A[Arg(Me2a)]TKQTARKSTG (peptide, UniProt P68431 2-13, looked up, histone H3, residues 1-12; also called H3R2me2a; asymmetrically dimethylated H3R2; source: synthetic peptide (GL Biochem, Shanghai))",Kd,[6],6.23 µM
same,Kd,[7],76.8 µM
"A[Arg(Me)]TKQTARKSTG (peptide, UniProt P68431 2-13, looked up, histone H3, residues 1-12; also called H3R2me1; monomethylated H3R2; source: synthetic peptide (GL Biochem, Shanghai))",Kd,[6],5.1 µM
same,Kd,[7],72.7 µM

# — publication PMC6753139, “TRIM66 reads unmodified H3R2K4 and H3K56ac to respond to DNA damage in embryonic stem cells” (Nature Communications, 2019)
